{"source": "paper PMC2241919", "binders": {"B1": {"name": "24/40-mer DNA/RNA P/T (DNA:RNA)", "DNA": "ATCACCAGGAGAGGGGAAAGCGGA", "RNA": "CUAAUUCCGCUUUCCCCUCUCCUGGUGAUCCUUUCCAUCC"}, "B2": {"name": "24/40-mer DNA/DNA P/T (dsDNA)", "DNA 1": "ATCACCAGGAGAGGGGAAAGCGGA", "DNA 2": "CTAATTCCGCTTTCCCCTCTCCTGGTGATCCTTTCCATCC"}}, "biological_target": "T1, SFVmac PR-RT WT (simian foamy virus from macaque (SFVmac), UniProt P23074 1-751)", "T1 sequence": "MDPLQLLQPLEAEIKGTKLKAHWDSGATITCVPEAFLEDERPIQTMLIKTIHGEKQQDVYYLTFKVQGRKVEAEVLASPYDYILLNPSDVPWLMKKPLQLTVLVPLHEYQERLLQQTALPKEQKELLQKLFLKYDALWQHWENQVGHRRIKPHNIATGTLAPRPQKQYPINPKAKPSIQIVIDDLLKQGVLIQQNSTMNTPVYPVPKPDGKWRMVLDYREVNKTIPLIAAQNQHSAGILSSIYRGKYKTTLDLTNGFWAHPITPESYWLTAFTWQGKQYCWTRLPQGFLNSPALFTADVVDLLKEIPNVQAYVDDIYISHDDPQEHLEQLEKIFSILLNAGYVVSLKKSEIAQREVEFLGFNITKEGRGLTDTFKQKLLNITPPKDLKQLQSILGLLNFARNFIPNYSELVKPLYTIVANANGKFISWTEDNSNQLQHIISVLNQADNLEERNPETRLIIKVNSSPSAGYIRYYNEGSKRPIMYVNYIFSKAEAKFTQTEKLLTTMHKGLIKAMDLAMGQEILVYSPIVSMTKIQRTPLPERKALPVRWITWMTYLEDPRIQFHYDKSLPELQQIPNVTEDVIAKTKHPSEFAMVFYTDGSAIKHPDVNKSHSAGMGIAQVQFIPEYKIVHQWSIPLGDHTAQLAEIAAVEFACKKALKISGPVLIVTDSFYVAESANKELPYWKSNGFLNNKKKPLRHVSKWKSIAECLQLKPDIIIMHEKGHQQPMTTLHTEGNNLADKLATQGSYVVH", "assay": "fluorescence anisotropy"}
{"binder": "B1", "values": [{"measurement": "Kd", "value": "32.4 ± 4.2", "unit": "nM"}]}
{"binder": "B2", "values": [{"measurement": "Kd", "value": "36.4 ± 2.4", "unit": "nM"}]}
